This is an account of results in PMC11014265.

Where two headings read alike, the source gives them in different places.

Common to all, as to experiment: fluorescence anisotropy
Background: Polarisation of emitted light reports the rotation of a fluorescent probe.

The target of series [1] is T1, HrpA75-1300 (no APHB) (Escherichia coli, UniProt P43329 75-1300).
T1 sequence: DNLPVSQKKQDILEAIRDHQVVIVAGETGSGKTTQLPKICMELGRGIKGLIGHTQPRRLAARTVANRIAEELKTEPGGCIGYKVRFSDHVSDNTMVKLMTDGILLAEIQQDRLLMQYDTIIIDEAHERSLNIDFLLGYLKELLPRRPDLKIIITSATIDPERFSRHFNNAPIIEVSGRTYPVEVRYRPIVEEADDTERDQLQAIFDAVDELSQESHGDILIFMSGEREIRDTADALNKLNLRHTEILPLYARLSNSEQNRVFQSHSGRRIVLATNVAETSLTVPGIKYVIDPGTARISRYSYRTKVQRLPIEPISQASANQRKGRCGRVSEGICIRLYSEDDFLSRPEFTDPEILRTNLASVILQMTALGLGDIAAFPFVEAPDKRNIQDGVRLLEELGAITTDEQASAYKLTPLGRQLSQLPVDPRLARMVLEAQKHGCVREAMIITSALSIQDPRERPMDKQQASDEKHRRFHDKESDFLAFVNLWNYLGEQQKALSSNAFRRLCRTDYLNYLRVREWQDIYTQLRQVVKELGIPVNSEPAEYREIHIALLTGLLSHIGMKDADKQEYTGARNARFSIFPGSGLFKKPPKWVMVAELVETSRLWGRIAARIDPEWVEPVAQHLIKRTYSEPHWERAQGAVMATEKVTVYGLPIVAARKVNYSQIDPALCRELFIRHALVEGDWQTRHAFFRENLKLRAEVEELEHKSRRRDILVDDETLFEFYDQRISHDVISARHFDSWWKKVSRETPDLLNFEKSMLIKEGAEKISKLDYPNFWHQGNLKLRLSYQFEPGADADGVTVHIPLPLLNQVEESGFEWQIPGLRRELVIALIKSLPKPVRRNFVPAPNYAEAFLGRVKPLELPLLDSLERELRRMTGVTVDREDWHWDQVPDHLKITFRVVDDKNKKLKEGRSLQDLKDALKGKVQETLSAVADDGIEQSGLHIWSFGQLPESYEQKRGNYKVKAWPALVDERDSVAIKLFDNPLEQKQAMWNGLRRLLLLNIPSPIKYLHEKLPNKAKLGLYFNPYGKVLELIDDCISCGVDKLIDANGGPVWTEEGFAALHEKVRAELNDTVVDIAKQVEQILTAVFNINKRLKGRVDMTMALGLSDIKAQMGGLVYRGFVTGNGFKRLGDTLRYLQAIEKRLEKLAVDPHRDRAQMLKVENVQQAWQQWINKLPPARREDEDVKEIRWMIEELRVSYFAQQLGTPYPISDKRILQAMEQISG

The target in series [2] is T2, HrpA75-758 (no APHB) (Escherichia coli, UniProt P43329 75-758).
T2 sequence: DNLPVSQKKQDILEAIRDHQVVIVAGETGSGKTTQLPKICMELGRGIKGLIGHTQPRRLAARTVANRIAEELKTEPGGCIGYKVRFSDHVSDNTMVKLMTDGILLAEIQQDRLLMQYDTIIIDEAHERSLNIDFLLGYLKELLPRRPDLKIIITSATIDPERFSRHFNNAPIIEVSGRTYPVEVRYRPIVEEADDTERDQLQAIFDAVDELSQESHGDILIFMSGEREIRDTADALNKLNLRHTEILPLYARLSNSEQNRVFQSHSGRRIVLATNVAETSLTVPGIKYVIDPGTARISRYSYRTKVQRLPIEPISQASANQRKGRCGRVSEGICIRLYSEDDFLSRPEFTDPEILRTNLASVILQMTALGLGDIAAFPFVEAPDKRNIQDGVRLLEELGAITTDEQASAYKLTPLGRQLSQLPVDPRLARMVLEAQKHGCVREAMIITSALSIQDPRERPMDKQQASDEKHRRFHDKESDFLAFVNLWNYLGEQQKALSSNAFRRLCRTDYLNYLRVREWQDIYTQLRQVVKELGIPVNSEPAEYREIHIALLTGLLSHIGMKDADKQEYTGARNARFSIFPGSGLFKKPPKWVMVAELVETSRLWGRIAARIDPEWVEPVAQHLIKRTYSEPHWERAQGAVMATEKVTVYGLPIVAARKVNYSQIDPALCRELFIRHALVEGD

For series [3], the target named is T2, HrpA75-758 (no APHB). This is another data set of the same source.
For series [4], the target named is T1, HrpA75-1300 (no APHB). The source holds these as a separate data set.
The target in series [5] is T1, HrpA75-1300 (no APHB). The source holds these as a separate data set.
The target in series [6] is T1, HrpA75-1300 (no APHB). The source holds these as a separate data set.
For another series, the target named is T3, HrpA1-1300 (full-length) (Escherichia coli, UniProt P43329 1-1300).
T3 sequence: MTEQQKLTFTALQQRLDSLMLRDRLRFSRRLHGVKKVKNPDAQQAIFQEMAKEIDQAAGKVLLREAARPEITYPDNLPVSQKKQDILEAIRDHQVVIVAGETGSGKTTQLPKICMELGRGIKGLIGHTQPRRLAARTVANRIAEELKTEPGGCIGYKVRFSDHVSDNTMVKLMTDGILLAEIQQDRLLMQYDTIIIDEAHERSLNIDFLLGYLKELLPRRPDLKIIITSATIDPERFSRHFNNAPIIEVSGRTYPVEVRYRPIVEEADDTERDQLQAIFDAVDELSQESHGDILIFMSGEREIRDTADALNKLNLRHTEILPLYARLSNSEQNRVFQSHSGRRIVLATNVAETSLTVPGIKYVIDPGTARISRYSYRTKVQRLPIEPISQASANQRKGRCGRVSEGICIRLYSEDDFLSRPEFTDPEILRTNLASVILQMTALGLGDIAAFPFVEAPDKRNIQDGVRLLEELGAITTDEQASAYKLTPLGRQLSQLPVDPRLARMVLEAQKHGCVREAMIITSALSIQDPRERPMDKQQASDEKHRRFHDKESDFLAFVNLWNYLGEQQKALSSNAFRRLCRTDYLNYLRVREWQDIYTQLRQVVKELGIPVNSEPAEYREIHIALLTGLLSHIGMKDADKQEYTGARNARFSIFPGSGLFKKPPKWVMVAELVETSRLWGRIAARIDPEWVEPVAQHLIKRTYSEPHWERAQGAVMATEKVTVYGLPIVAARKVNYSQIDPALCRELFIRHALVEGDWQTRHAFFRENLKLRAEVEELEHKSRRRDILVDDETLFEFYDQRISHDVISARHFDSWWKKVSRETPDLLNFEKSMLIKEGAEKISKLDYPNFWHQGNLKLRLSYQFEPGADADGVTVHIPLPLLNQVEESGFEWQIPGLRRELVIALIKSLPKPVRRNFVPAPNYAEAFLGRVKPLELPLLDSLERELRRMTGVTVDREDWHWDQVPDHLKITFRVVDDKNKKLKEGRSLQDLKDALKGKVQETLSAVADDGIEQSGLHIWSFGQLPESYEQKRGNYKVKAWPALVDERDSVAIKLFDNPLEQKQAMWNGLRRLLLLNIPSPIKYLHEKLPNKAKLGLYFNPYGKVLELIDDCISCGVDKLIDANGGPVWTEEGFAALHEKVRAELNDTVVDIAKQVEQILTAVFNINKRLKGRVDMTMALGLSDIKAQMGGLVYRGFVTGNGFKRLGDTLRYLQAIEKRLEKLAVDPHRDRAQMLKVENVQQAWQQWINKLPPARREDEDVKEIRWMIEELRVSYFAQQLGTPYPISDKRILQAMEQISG

The target in series [7] is T1, HrpA75-1300 (no APHB). This is another data set of the same source.
A further series addresses T4, HrpA1-1300 E49A (Escherichia coli, UniProt P43329 1-1300, E49A).
T4 sequence: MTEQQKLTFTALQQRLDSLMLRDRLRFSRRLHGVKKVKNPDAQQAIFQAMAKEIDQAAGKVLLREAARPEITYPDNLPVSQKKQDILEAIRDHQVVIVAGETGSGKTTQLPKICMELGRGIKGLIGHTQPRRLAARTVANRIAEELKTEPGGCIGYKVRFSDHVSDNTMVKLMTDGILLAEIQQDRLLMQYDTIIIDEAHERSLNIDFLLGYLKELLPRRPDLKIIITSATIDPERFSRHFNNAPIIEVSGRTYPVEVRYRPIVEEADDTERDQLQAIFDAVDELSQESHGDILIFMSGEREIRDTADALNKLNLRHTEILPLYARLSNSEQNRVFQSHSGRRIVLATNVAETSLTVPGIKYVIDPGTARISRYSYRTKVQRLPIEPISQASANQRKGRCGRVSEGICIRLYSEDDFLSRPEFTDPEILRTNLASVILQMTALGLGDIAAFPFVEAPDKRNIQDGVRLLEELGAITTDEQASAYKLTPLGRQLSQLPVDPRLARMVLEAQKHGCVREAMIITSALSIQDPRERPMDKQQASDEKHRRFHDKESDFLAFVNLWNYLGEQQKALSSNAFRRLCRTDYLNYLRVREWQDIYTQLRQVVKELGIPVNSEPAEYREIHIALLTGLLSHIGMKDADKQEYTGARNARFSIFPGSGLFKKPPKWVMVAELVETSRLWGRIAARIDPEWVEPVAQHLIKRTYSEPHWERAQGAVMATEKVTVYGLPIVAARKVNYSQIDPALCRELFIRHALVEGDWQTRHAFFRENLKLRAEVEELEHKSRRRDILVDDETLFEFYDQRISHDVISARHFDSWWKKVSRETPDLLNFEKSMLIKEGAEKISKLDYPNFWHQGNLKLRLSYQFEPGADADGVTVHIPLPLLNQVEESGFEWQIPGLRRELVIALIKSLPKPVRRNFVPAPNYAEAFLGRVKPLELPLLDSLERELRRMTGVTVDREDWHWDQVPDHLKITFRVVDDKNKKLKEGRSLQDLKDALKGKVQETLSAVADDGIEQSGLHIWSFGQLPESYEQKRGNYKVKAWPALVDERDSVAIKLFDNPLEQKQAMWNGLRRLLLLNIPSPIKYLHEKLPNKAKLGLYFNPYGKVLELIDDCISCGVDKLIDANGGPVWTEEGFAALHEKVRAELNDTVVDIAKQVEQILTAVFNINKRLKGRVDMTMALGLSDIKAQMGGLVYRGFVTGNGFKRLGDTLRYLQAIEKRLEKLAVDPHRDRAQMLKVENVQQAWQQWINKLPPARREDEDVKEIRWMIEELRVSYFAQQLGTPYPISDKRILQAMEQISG

Regarding CCCCCCCCCCCC (ssRNA) [R-C12], the results for the binding signal with HrpA75-1300 (no APHB) [1] and with HrpA75-758 (no APHB) [2] were more than 9 fold reduction and more than 3 fold reduction, respectively.
For AAAAAAAAAAAA (ssRNA) [R-A12], the binding signal in the series with HrpA75-758 (no APHB) [3] and in the series with HrpA75-1300 (no APHB) [4] was more than 3 fold reduction in each case.
For the molecule UUUUUUUUUUUU (ssRNA) [R-U12], the values for the binding signal with HrpA75-1300 (no APHB) [5] and with HrpA75-758 (no APHB) [2] were more than 2 fold reduction and more than 3 fold reduction, respectively.
GUGUGUGUGUGU (ssRNA) [R-G-rich]: the binding signal with HrpA75-758 (no APHB) [3] is more than 3 fold reduction; with HrpA75-1300 (no APHB) [6] it was more than 9 fold reduction.
In the case of TTTTTTTTTTTT (ssDNA) [D-T12], binding in the series with HrpA1-1300 (full-length) was put at a Kd of 307 nM.
With CCCCCCCCCCCC (ssDNA) [D-C12], the results for the binding result with HrpA75-1300 (no APHB) [7] and in the series with HrpA1-1300 E49A were “no binding” and “binds”, respectively.

What is called Kd is the equilibrium constant for the complex coming apart. A low value points to higher affinity.
